Test results as given in patent publication US20130164281A1 (SAMSUNG ELECTRONICS, published 2013).
Substitutions are numbered along the chain they refer to. Each block holds one binder with its values, some of them ahead of it.

Columns and labels:
[1] = target: T1, human c-Met/Fc fusion protein (R&D Systems) (human, UniProt P08581 25-932); assay: competition ELISA on coated c-Met/Fc; competitor biotinylated chAbF46 (0.1 ug/ml)
T1 construct: Bought reagent; also called c-Met/Fc chimera (R&D Systems Cat. No. 358-MT/CF); not shown: Fc part of the bought fusion
T1 sequence (P08581 25-932 limits assumed): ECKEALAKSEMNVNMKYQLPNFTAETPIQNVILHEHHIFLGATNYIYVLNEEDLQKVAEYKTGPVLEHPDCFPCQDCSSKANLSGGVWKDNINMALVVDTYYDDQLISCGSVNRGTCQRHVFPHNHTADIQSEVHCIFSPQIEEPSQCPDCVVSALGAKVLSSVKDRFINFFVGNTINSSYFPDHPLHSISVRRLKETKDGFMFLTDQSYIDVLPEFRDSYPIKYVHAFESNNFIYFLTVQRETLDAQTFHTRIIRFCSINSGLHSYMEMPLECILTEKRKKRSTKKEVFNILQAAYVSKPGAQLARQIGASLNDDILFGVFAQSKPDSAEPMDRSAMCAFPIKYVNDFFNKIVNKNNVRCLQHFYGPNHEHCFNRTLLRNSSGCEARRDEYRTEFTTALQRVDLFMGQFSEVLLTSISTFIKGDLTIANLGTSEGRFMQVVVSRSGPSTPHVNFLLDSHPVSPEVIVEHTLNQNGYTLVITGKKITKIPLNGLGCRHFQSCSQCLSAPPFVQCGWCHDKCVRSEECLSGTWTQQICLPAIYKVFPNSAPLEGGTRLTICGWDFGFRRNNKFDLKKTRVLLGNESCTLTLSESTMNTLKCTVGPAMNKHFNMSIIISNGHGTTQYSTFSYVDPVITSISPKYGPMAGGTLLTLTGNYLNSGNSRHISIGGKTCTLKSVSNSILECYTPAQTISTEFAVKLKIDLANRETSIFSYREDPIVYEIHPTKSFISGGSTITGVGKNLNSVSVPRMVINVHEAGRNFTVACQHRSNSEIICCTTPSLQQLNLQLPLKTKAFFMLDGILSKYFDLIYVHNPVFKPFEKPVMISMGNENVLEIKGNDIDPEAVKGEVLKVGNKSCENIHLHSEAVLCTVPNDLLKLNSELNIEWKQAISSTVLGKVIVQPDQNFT
Method: The antigens were coated by overnight incubation at a temperature of 4° C. using Nunc Immuno MaxiSort 96 well flat bottom microtiter plate (Fisher Cat. No. DIS-971-030J) and 1.0 μg/ml and 100 μl/well of c-Met/Fc chimera (R&D Systems Cat. No. 358-MT/CF). chAbF46 and 20 humanized antibodies were diluted and at a concentration of 10 μg/ml to 0.078 μg/ml, they were mixed with biotinylated chAbF46 (0.1 μg/ml, final conc.), followed by incubation at a temperature of 37° C. for 2 hours. The amount of biotinylated chAbF46 antibody binding to the antigen was measured using streptavidin-HRP (Sigma cat. No S5512) and an OPD substrate (Sigma Cat. No. P9187), and IC50 data were calculated from the results and the data are shown in Table 1 below (all units in nM).

[2] = target: T2, human c-Met protein antigen (human, UniProt P08581 25-932, limits assumed); assay: Biacore SPR, antibody immobilized on CM5 chip, human c-Met protein injected
T2 construct: also called c-Met antigen
T2 sequence (P08581 25-932 limits assumed): as above

IC50 [1]: 4.5 nM
B1: deimmunized humanized antibody huAbF46 including a combination of AT-VH3 and AT-Vk2 (antibody, IgG1, V domains shown)
VH: EVQLVESGGGLVQPGGSLRLSCATSGFTFTDYYMSWVRQPPGKGLEWLGFIRNKANGYTTEYSASVKGRFTISRDNSKSTLYLQMNSLRAEDTATYYCARDNWFAYWGQGTLVTVSS
VL: DILMTQSPSSLSASVGDRVTITCKSSQSLLASGNQNNYLAWHQQKPGKAPKMLIIWASTRVSGVPDRFIGSGSGTDFTLTISSLQAEDVAVYYCQQSYSAPLTFGQGTKLEIK
notes: expressed from pANTVhG1 and pANTVk vectors (IgG1, kappa) in HEK293 cells; also called AT-VH3/AT-Vk2

IC50 [1]: 1.28 nM
B2: deimmunized humanized antibody huAbF46 including a combination of AT-VH2 and AT-Vk2 (antibody, IgG1, V domains shown)
VH: B1 VH with Q3K
VL: B1 VL
notes: expressed from pANTVhG1 and pANTVk vectors (IgG1, kappa) in HEK293 cells; also called AT-VH2/AT-Vk2

Kd [2]: 4.27 nM
B3: chimeric antibody chAbF46 (antibody, V domains shown)
VH: B1 VH with Q3K, G44A, K78Q, T80I, N86D, S87T, T93S, S117A
VL: DILMTQSPSSLTVSAGEKVTMSCKSSQSLLASGNQNNYLAWHQQKPGRSPKMLIIWASTRVSGVPDRFIGSGSGTDFTLTINSVQAEDLAVYYCQQSYSAPLTFGAGTKLELKR

IC50 [1]: 1.37 nM
B4: deimmunized humanized antibody huAbF46 including a combination of AT-VH2 and AT-Vk4 (antibody, IgG1, V domains shown)
VH: B1 VH with Q3K
VL: B1 VL with L3Q, I69S
notes: expressed from pANTVhG1 and pANTVk vectors (IgG1, kappa) in HEK293 cells; also called AT-VH2/AT-Vk4

IC50 [1]: 2.4 nM
B5: deimmunized humanized antibody huAbF46 including a combination of AT-VH4 and AT-Vk1 (antibody, IgG1, V domains shown)
VH: B1 VH with S79N
VL: B1 VL with S12T, I21M
notes: expressed from pANTVhG1 and pANTVk vectors (IgG1, kappa) in HEK293 cells; also called AT-VH4/AT-Vk1

IC50 [1]: 3.13 nM
B6: deimmunized humanized antibody huAbF46 including a combination of AT-VH4 and AT-Vk2 (antibody, IgG1, V domains shown)
VH: B1 VH with S79N
VL: B1 VL
notes: expressed from pANTVhG1 and pANTVk vectors (IgG1, kappa) in HEK293 cells; also called AT-VH4/AT-Vk2

IC50 [1]: 1.49 nM
B7: deimmunized humanized antibody huAbF46 including a combination of AT-VH1 and AT-Vk2 (antibody, IgG1, V domains shown)
VH: B1 VH with Q3K, T93S
VL: B1 VL
notes: expressed from pANTVhG1 and pANTVk vectors (IgG1, kappa) in HEK293 cells; also called AT-VH1/AT-Vk2

IC50 [1]: 1.69 nM
B8: deimmunized humanized antibody huAbF46 including a combination of AT-VH2 and AT-Vk3 (antibody, IgG1, V domains shown)
VH: B1 VH with Q3K
VL: B1 VL with L3Q
notes: expressed from pANTVhG1 and pANTVk vectors (IgG1, kappa) in HEK293 cells; also called AT-VH2/AT-Vk3

IC50 [1]: 5.51 nM
B9: deimmunized humanized antibody huAbF46 including a combination of AT-VH3 and AT-Vk3 (antibody, IgG1, V domains shown)
VH: B1 VH
VL: B1 VL with L3Q
notes: expressed from pANTVhG1 and pANTVk vectors (IgG1, kappa) in HEK293 cells; also called AT-VH3/AT-Vk3

IC50 [1]: 1.48 nM
B10: deimmunized humanized antibody huAbF46 including a combination of AT-VH1 and AT-Vk1 (antibody, IgG1, V domains shown)
VH: B1 VH with Q3K, T93S
VL: B1 VL with S12T, I21M
notes: expressed from pANTVhG1 and pANTVk vectors (IgG1, kappa) in HEK293 cells; also called AT-VH1/AT-Vk1

IC50 [1]: 2.04 nM
B11: deimmunized humanized antibody huAbF46 including a combination of AT-VH5 and AT-Vk1 (antibody, IgG1, V domains shown)
VH: B1 VH with S79N, T95V
VL: B1 VL with S12T, I21M
notes: expressed from pANTVhG1 and pANTVk vectors (IgG1, kappa) in HEK293 cells; also called AT-VH5/AT-Vk1

IC50 [1]: 1.41 nM
B12: deimmunized humanized antibody huAbF46 including a combination of AT-VH4 and AT-Vk4 (antibody, IgG1, V domains shown)
VH: B1 VH with S79N
VL: B1 VL with L3Q, I69S
notes: expressed from pANTVhG1 and pANTVk vectors (IgG1, kappa) in HEK293 cells; also called AT-VH4/AT-Vk4

IC50 [1]: 1.81 nM
B13: deimmunized humanized antibody huAbF46 including a combination of AT-VH3 and AT-Vk4 (antibody, IgG1, V domains shown)
VH: B1 VH
VL: B1 VL with L3Q, I69S
notes: expressed from pANTVhG1 and pANTVk vectors (IgG1, kappa) in HEK293 cells; also called AT-VH3/AT-Vk4

IC50 [1]: 2.3 nM
B14: deimmunized humanized antibody huAbF46 including a combination of AT-VH2 and AT-Vk1 (antibody, IgG1, V domains shown)
VH: B1 VH with Q3K
VL: B1 VL with S12T, I21M
notes: expressed from pANTVhG1 and pANTVk vectors (IgG1, kappa) in HEK293 cells; also called AT-VH2/AT-Vk1

IC50 [1]: 3.53 nM
B15: deimmunized humanized antibody huAbF46 including a combination of AT-VH3 and AT-Vk1 (antibody, IgG1, V domains shown)
VH: B1 VH
VL: B1 VL with S12T, I21M
notes: expressed from pANTVhG1 and pANTVk vectors (IgG1, kappa) in HEK293 cells; also called AT-VH3/AT-Vk1

IC50 [1]: 1.62 nM
B16: deimmunized humanized antibody huAbF46 including a combination of AT-VH5 and AT-Vk4 (antibody, IgG1, V domains shown)
VH: B1 VH with S79N, T95V
VL: B1 VL with L3Q, I69S
notes: expressed from pANTVhG1 and pANTVk vectors (IgG1, kappa) in HEK293 cells; also called AT-VH5/AT-Vk4

IC50 [1]: 1.51 nM
B17: deimmunized humanized antibody huAbF46 including a combination of AT-VH1 and AT-Vk4 (antibody, IgG1, V domains shown)
VH: B1 VH with Q3K, T93S
VL: B1 VL with L3Q, I69S
notes: expressed from pANTVhG1 and pANTVk vectors (IgG1, kappa) in HEK293 cells; also called AT-VH1/AT-Vk4

IC50 [1]: 1.57 nM
B18: deimmunized humanized antibody huAbF46 including a combination of AT-VH5 and AT-Vk3 (antibody, IgG1, V domains shown)
VH: B1 VH with S79N, T95V
VL: B1 VL with L3Q
notes: expressed from pANTVhG1 and pANTVk vectors (IgG1, kappa) in HEK293 cells; also called AT-VH5/AT-Vk3

IC50 [1]: 1.46 nM
B19: deimmunized humanized antibody huAbF46 including a combination of AT-VH5 and AT-Vk2 (antibody, IgG1, V domains shown)
VH: B1 VH with S79N, T95V
VL: B1 VL
notes: expressed from pANTVhG1 and pANTVk vectors (IgG1, kappa) in HEK293 cells; also called AT-VH5/AT-Vk2

IC50 [1]: 1.99 nM
B20: deimmunized humanized antibody huAbF46 including a combination of AT-VH4 and AT-Vk3 (antibody, IgG1, V domains shown)
VH: B1 VH with S79N
VL: B1 VL with L3Q
notes: expressed from pANTVhG1 and pANTVk vectors (IgG1, kappa) in HEK293 cells; also called AT-VH4/AT-Vk3

IC50 [1]: 2.3 nM
B21: deimmunized humanized antibody huAbF46 including a combination of AT-VH1 and AT-Vk3 (antibody, IgG1, V domains shown)
VH: B1 VH with Q3K, T93S
VL: B1 VL with L3Q
notes: expressed from pANTVhG1 and pANTVk vectors (IgG1, kappa) in HEK293 cells; also called AT-VH1/AT-Vk3
